Experimental data published in article PMC9482650, “Quantitative fragmentomics allow affinity mapping of interactomes” (Nature Communications, 2022).

Legend:
Assay in all cases: holdup assay
Parameters in all cases: key: below the threshold = too weak to quantify, mostly under pKd 3.1 to 4
Details in all cases: plain residues with an end cap or a label only (N-terminal biotin on a linker: ado-ado)
FRMPD1, Q5SYB0 = target: T1, FRMPD1, Q5SYB0
T1 sequence (Q5SYB0 52-145, limits assumed, looked up): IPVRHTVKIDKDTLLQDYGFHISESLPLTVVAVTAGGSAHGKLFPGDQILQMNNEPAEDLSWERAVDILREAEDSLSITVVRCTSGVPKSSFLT

PDZRN3_1, Q9UPQ7 = target: T2, PDZRN3_1, Q9UPQ7
T2 sequence (Q9UPQ7 244-349, limits assumed, looked up): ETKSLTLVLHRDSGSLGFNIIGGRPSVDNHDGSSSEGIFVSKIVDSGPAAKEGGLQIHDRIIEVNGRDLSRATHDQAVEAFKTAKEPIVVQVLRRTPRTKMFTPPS

GORASP1, Q9BQQ3 = target: GORASP1, Q9BQQ3
SNTB1, Q13884 = target: T3, SNTB1, Q13884
T3 sequence (Q13884 107-205, limits assumed, looked up): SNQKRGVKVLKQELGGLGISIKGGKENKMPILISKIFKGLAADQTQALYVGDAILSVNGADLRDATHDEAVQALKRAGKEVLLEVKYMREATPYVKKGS

SCRIB_3, Q14160 = target: SCRIB_3, Q14160
TJP1_2, Q07157 = target: TJP1_2, Q07157
HTRA3, P83110 = target: T4, HTRA3, P83110
T4 sequence (P83110 354-453, limits assumed, looked up): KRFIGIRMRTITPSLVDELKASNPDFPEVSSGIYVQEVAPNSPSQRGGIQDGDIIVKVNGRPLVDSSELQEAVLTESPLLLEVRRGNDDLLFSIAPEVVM

PDLIM1, O00151 = target: PDLIM1, O00151
ARHGAP21, Q5T5U3 = target: T5, ARHGAP21, Q5T5U3
T5 sequence (Q5T5U3 45-169, limits assumed, looked up): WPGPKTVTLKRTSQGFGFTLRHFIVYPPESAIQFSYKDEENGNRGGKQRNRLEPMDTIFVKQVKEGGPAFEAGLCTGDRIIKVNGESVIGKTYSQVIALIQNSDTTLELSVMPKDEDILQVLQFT

Inadl_3, Q8NI35 = target: Inadl_3, Q8NI35
FRMPD2_2, Q68DX3 = target: FRMPD2_2, Q68DX3
RHPN1, Q8TCX5 = target: T6, RHPN1, Q8TCX5
T6 sequence (Q8TCX5 508-602, limits assumed, looked up): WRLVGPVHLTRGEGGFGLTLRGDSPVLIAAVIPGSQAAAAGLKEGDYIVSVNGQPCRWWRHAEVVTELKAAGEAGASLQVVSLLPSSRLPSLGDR

NHERF4_4, Q86UT5 = target: NHERF4_4, Q86UT5
GRIP2_6, Q9C0E4 = target: GRIP2_6, Q9C0E4
GORASP2, Q9H8Y8 = target: GORASP2, Q9H8Y8
Inadl_1, Q8NI35 = target: Inadl_1, Q8NI35
IL16_1, Q14005 = target: IL16_1, Q14005
MPDZ_5, O75970 = target: T7, MPDZ_5, O75970
T7 sequence (O75970 695-796, limits assumed, looked up): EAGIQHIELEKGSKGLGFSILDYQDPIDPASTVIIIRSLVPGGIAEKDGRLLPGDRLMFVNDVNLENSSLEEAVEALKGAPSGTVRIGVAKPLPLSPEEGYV

MPDZ_10, O75970 = target: T8, MPDZ_10, O75970
T8 sequence (O75970 1624-1722, limits assumed, looked up): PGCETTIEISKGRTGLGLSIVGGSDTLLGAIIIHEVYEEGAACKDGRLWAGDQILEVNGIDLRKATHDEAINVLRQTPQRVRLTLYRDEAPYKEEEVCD

SCRIB_1, Q14160 = target: SCRIB_1, Q14160
LRRC7, Q96NW7 = target: T9, LRRC7, Q96NW7
T9 sequence (Q96NW7 1440-1537, limits assumed, looked up): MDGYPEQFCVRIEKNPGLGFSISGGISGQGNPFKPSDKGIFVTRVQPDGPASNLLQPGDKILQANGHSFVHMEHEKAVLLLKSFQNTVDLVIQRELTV

Inadl_4, Q8NI35 = target: Inadl_4, Q8NI35
DLG4_1, P78352 = target: DLG4_1, P78352
DLG2_3, Q15700 = target: DLG2_3, Q15700
MPP7, Q5T2T1 = target: T10, MPP7, Q5T2T1
T10 sequence (Q5T2T1 134-230, limits assumed, looked up): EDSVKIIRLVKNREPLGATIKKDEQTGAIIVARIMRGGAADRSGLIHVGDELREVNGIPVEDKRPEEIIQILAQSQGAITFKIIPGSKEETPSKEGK

DFNB31_2, Q9P202 = target: T11, DFNB31_2, Q9P202
T11 sequence (Q9P202 274-371, limits assumed, looked up): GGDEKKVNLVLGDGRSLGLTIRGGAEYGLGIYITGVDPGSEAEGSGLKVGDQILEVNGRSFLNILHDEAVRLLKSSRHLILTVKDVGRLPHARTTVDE

NHERF4_1, Q86UT5-2 = target: NHERF4_1, Q86UT5-2

Measured: pKd

Chain of GORASP1, Q9BQQ3 (Q9BQQ3 1-208): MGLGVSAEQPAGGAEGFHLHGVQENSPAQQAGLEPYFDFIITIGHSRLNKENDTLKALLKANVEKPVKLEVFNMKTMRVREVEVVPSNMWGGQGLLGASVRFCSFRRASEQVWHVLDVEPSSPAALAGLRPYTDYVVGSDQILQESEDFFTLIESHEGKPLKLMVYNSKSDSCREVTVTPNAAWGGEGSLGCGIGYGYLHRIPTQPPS
Chain of PDLIM1, O00151 (O00151 1-87): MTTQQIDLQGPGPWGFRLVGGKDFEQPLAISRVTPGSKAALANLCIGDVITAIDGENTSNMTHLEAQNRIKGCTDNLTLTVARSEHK
Chain of Inadl_1, Q8NI35 (Q8NI35 113-229): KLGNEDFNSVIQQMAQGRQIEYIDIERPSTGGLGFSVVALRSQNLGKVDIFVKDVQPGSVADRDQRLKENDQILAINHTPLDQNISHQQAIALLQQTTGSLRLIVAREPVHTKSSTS
Chain of TJP1_2, Q07157 (Q07157 181-274): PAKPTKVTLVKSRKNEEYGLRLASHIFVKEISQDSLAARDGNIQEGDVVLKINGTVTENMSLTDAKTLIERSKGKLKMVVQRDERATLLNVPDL
Chain of NHERF4_4, Q86UT5 (Q86UT5 464-550): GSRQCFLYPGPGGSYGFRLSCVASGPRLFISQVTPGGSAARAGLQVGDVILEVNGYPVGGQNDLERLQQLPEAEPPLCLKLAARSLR
Chain of GRIP2_6, Q9C0E4 (Q9C0E4 648-740): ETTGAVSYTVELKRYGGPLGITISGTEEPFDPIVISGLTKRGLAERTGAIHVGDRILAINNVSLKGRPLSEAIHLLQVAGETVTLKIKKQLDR
Chain of Inadl_3, Q8NI35 (Q8NI35 359-469): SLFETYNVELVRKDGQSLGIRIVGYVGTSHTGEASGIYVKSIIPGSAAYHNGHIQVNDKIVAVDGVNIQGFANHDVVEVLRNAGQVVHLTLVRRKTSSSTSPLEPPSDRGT
Chain of Inadl_4, Q8NI35 (Q8NI35 547-651): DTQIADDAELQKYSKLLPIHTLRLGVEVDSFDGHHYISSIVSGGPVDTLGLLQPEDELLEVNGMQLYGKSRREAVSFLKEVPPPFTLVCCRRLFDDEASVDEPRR
Chain of SCRIB_3, Q14160 (Q14160 999-1103): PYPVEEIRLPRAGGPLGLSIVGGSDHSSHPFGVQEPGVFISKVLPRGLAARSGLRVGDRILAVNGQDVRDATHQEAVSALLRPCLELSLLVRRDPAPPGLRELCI
Chain of IL16_1, Q14005 (Q14005 210-306): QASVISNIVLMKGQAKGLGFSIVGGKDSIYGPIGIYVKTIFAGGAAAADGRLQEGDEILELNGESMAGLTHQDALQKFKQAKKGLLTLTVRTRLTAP
Chain of FRMPD2_2, Q68DX3 (Q68DX3 944-1038): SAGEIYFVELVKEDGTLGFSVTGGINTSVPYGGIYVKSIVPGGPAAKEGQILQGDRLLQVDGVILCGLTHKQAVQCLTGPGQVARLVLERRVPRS
Chain of SCRIB_1, Q14160 (Q14160 718-814): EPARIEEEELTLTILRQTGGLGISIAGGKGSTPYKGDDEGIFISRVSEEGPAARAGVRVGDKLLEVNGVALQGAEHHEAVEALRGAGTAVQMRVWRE
Chain of NHERF4_1, Q86UT5-2 (Q86UT5 other isoform, or with tags, fused parts or gaps): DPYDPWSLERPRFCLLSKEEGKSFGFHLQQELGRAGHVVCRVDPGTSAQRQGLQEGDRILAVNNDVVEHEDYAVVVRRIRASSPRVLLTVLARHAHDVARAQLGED
Chain of DLG4_1, P78352 (P78352 62-152): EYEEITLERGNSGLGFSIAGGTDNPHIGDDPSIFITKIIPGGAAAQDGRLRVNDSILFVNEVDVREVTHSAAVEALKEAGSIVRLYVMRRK

PLATCDETSI [SEMA4F, O95754]
4.93: RHPN1, Q8TCX5
3.54: MPP7, Q5T2T1
4.92: SCRIB_1, Q14160
4.81: SCRIB_3, Q14160
3.9: DLG2_3, Q15700
3.53: FRMPD2_2, Q68DX3
4.51: SNTB1, Q13884
4.03: PDZRN3_1, Q9UPQ7
below the threshold: all other assays above

FVFESRKEIL [TBPL1, P62380]
4.08: NHERF4_1, Q86UT5-2
3.83: ARHGAP21, Q5T5U3
3.57: GORASP1, Q9BQQ3
below the threshold: all other assays above

DSEEELPTRL [GRK6, P43250]
3.53: SCRIB_3, Q14160 | SCRIB_1, Q14160
3.55: RHPN1, Q8TCX5
4.22: ARHGAP21, Q5T5U3 | NHERF4_1, Q86UT5-2
below the threshold: all other assays above

KPDKQEEFYA [SDC3, O75056]
4.41: HTRA3, P83110
3.64: DLG2_3, Q15700
below the threshold: all other assays above

RDYTQSSSSL [GRM5, P41594]
3.51: RHPN1, Q8TCX5
4.13: NHERF4_1, Q86UT5-2
4.17: ARHGAP21, Q5T5U3
3.56: PDZRN3_1, Q9UPQ7
4.05: SCRIB_3, Q14160
below the threshold: all other assays above
